According to article PMC4778132, “CC chemokine receptor 10 cell surface presentation in melanocytes is regulated by the novel interaction partner S100A10” (Scientific Reports, 2016):

B1: GST-CCR10 CT (C-terminal cytoplasmic tail of human CCR10 fused to GST) (domain or fragment, UniProt P46092 314-362, looked up)
chain: GLRFRQDLRRLLRGGSCPSGPQPRRGCPRRPRLSSCSAPTETHSLSWDN
notes: C-terminal cytosolic tail of human CCR10, amino acid residues 314-362 (methods); the results print 314-369; Cloned in pGex-4T-1; Results print 314-369, methods 314-362; also called CCR10 CT_(314–369); pGex-CCR10CT_(314–362)
B2: GST-CCR10 CT truncation mutant T1 (domain or fragment, human, UniProt P46092 314-339, looked up)
chain: GLRFRQDLRRLLRGGSCPSGPQPRRG
notes: C-terminal tail of human CCR10, amino acid residues 314-339 (stop codon inserted into pGex-CCR10CT); also called T1 mutant

Legend:
[1] = target: T1, recombinant HIS-tagged human S100A10 (wild type) (human, UniProt P60903 1-97); assay: SPR; Biacore 3000; GST-CCR10 CT amine-coupled on a CM5 chip; six concentrations of HIS-tagged S100A10 derivative injected; HBS-P buffer (10 mM Hepes pH 7.4, 150 mM NaCl, 0.005% Tween-20), 25 °C; binding to GST alone subtracted; single binding site model, KD by the Scatchard equation; settings: both partners purified
T1 construct: human S100A10, cDNA in pET28a(+); also called HIS-S100A10; S100A10 wt; source: E. coli BL21(DE3)pLysS, purified (Ni-NTA); not shown: poly-histidine (HIS), N-terminal, kept
T1 sequence (P60903 whole entry): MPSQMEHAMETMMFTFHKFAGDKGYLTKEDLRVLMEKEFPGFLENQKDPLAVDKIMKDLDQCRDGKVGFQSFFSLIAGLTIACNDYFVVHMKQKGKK

[2] = target: T1, recombinant HIS-tagged human S100A10 …; assay: pull-down; GST fusion proteins (50 μg) on glutathione sepharose beads incubated with purified protein (10 μg), 2 hours at 4 °C, IP buffer (20 mM Tris-HCl pH 7.5, 25 mM NaCl, 10 mM NaF, 1 mM EDTA, 0.1% Triton-X 100); immunoblot; settings: both partners purified

Row | Binder | Kd [1] | binding result [2]
1 | B1 | ~1000 nM | –
2 | B2 | – | binds
